Measured values taken from publication doi:10.1101/2025.08.13.669967, “Cryo-EM protein structure without purification” (bioRxiv, 2025).

Molecular target: the molecule itself
Experiment: native gel or EMSA; Native PAGE of the 25 µl PURE cell-free expression reaction with FluoroTect GreenLys fluorescent detection, compared to a no plasmid DNA control

B1: Arabidopsis thaliana Pyridoxal 5'-phosphate synthase-like subunit PDX1.2 (natural protein, UniProt Q9ZNR6 1-314, looked up)
chain: MADQAMTDQDQGAVTLYSGTAITDAKKNHPFSVKVGLAQVLRGGAIVEVSSVNQAKLAESAGACSVIVSDPVRSRGGVRRMPDPVLIKEVKRAVSVPVMARARVGHFVEAQILESLAVDYIDESEIISVADDDHFINKHNFRSPFICGCRDTGEALRRIREGAAMIRIQGDLTATGNIAETVKNVRSLMGEVRVLNNMDDDEVFTFAKKISAPYDLVAQTKQMGRVPVVQFASGGITTPADAALMMQLGCDGVFVGSEVFDGPDPFKKLRSIVQAVQHYNDPHVLAEMSSGLENAMESLNVRGDRIQDFGQGSV
modifications: translation mixture supplemented with FluoroTect GreenLys reagent (fluorescent detection)
notes: Pyridoxal 5'-phosphate synthase-like subunit PDX1.2 of Arabidopsis thaliana, Uniprot Q9ZNR6; synthetic gene (Genscript) in the pT7-DHFR Control plasmid in place of DHFR (NdeI/NotI); source: PURE (PureExpress In Vitro Protein Synthesis kit, New England Biolabs) cell-free expression, 25 µl reaction; in crude lysate or after small-scale clean-up (spin filter, benzonase, reverse His-purification); …
  stoichiometry N: 12
